# From the supplement of paper PMC9732359
# ± gives the uncertainty stated by the source.
# Assay: protein stability index of a GFP-peptide fusion (yeast GPS) (PSI 1-4); higher = more stable; sorted into four equal gates, so the index is relative within each strain
# Method in brief: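 Sequencing reads from sorted gates were used to score each peptide. The library consisted of tiled 17-residue yeast protein peptides fused downstream of GFP on a Cherry-expressing plasmid, pooled and carried in yeast. Mid-log cultures in leucine-free medium were split into four equal gates by GFP/Cherry ratio, and each gate's plasmids were PCR-amplified and Illumina-sequenced. The protein stability index adds up, over all gates, the read frequency multiplied by the gate number.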
Sequence,protein stability index (doa10∆),protein stability index (pdr5∆),protein stability index (san1∆),protein stability index (ubr1∆)
SSYDLLFNESFIMASVG [SRP72],3.18 ± 0.12,2.88 ± 0.15,2.76 ± 0.1,3.16 ± 0.059
STDELVGSPLTVSILQE [POP8],2.08 ± 0.084,2.62 ± 0.11,2 ± 0.1,2.26 ± 0.084
STDKLVQCHGSFATATC [SIR2],2.72 ± 0.066,2.67 ± 0.048,2.48 ± 0.063,2.76 ± 0.037
STFENRNVGKTLVNKST [RPS1A],2.91 ± 0.085,2.74 ± 0.059,3.09 ± 0.055,3.14 ± 0.068
STFREWKNLVLKLSQAF [YJR042W/NUP85],2.85 ± 0.079,2.37 ± 0.096,2.64 ± 0.068,2.74 ± 0.076
STLEPTLRKELEQIQVQ [YIL149C/MLP2],2.75 ± 0.096,3.01 ± 0.088,2.89 ± 0.062,2.3 ± 0.048
STLGDCLGIKDEEMLTS [GAL11],3.17 ± 0.18,3.11 ± 0.13,2.81 ± 0.062,3.04 ± 0.088
STMKENKDLSELVIRLE [YIL149C/MLP2],3.08 ± 0.08,3.1 ± 0.082,3.16 ± 0.065,3.09 ± 0.069
STNESNKSISDEITEDM [SSN2],2.5 ± 0.05,2.75 ± 0.057,2.8 ± 0.05,2.98 ± 0.045
STNGLGMCQLYFWHKIW [SNU114],,1.24 ± 0.24,2.56 ± 0.21,
STPYLEILVEESGLRPV [PCI8],1.57 ± 0.048,1.55 ± 0.091,1.54 ± 0.19,2.17 ± 0.091
STSYAIKKKDELERVAK [RPS5],3.44 ± 0.084,3.52 ± 0.11,3.33 ± 0.061,3.35 ± 0.081
STTMDGANDLGFTASVS [MED1],3.08 ± 0.092,3.1 ± 0.061,3.07 ± 0.072,2.99 ± 0.081
STTTSVNGSTTAGVGST [SIN4],3.06 ± 0.044,2.99 ± 0.048,3.07 ± 0.041,2.85 ± 0.036
STVSGELNDNPAWFNNP [YMR153W/NUP53],3.36 ± 0.086,3.47 ± 0.056,3.29 ± 0.044,3.35 ± 0.049
STYRLEDVLSSFYRVEK [SSN2],2.09 ± 0.074,2.34 ± 0.073,1.87 ± 0.1,2.48 ± 0.094
SVAPTKQREIVKAFLSI [NUT1],2.1 ± 0.11,1.94 ± 0.073,2.41 ± 0.13,2.04 ± 0.063
SVDLEKLAFGLTKLNED [TAF14],3.54 ± 0.19,3.45 ± 0.17,3.6 ± 0.092,3.61 ± 0.12
SVKESTGMSSMSPFLRK [SRB4],3.42 ± 0.14,2.6 ± 0.23,2.1 ± 0.25,3.15 ± 0.079
SVKFTHIAHTLPEKVNF [SSN2],2.17 ± 0.05,2.28 ± 0.042,2.2 ± 0.066,1.92 ± 0.029
SVKSARTSTRGRGRGRG [SNF2],3.38 ± 0.065,3.35 ± 0.064,3.19 ± 0.046,3.32 ± 0.041
SVLQLIVSEDHIILDTI [MED1],2.2 ± 0.17,2.7 ± 0.19,,2.08 ± 0.26
SVMMQDSPASNEDDLTV [RPO31],3.02 ± 0.097,3.08 ± 0.083,2.78 ± 0.076,3.31 ± 0.12
SVQNLDQLLTDLIETSF [NUT1],2.9 ± 0.15,2.64 ± 0.1,2.94 ± 0.066,2.85 ± 0.11
SVRGAIVGPDLAVLALV [RPS6A],1.18 ± 0.041,1.46 ± 0.06,1.14 ± 0.11,1.38 ± 0.045
SVRKFLEIALFKYRKAR [RPO31],2.31 ± 0.12,1.18 ± 0.097,1.36 ± 0.17,1.32 ± 0.15
SVRLFSFLDPLNYGNIC [YJL039C/NUP192],1.88 ± 0.053,2.21 ± 0.069,2.47 ± 0.061,2 ± 0.063
